Measurements published in the supplement of paper PMC12042874.
± gives the uncertainty stated by the source.

experiment: amyloid nucleation score (Sup35N fusion, yeast selection) (log enrichment); library NNK1; higher = more nucleation; inactive = no reads after selection
Summary of the method: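 Growth for 7 days at 30°C on medium lacking adenine and uracil followed a 24-hour induction with 100 μM copper sulfate of psi-negative yeast expressing peptides of 20 random codons fused to Sup35N. Input and output plasmid inserts were sequenced with Illumina, and sequences with under 100 input reads were excluded. Nucleation score is the DiMSum log enrichment of output over input reads, centred on the mode score of non-aggregating sequences.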

Question: Which amyloid nucleation score does the source give for ADGWFQFWRGKYFGGRFQFT here?
Answer: -0.166 ± 0.61

Question: With ADRKSFLQSCGLCE as the substance, how does the amyloid nucleation score read?
Answer: -0.661 ± 0.32

Question: For ADWTSSLNLGEYYMFKFSPE, which amyloid nucleation score is on record?
Answer: 1.02 ± 0.38

Question: With AECLDPMNAVTVCRGSWL as the substance, how does the amyloid nucleation score read?
Answer: 0.101 ± 0.35

Question: For AESLWQFTWQVTKPHEEGSE, which amyloid nucleation score is on record?
Answer: 4.35 ± 0.068

Question: Which amyloid nucleation score does the source give for AFAVSSYWVRGIHRESYGSV here?
Answer: 0.591 ± 0.69

Question: With AFGMIVLGRSTNGGYCTDGN as the substance, how does the amyloid nucleation score read?
Answer: 2.83 ± 0.16

Question: For AFLQLDS, which amyloid nucleation score is on record?
Answer: 0.665 ± 0.36

Question: Which amyloid nucleation score does the source give for AFMSRVPFSHCIKSGGLQGT here?
Answer: 0.19 ± 0.49

Question: With AFNGTSAGMCKWGACTEWCV as the substance, how does the amyloid nucleation score read?
Answer: -0.382 ± 0.28

Question: With AFNKAVMSDTQL as the substance, how does the amyloid nucleation score read?
Answer: -0.7 ± 0.6

Question: Which amyloid nucleation score does the source give for AGCHGSDSHPFRQPSPLLLF here?
Answer: 0.462 ± 1.2

Question: Which amyloid nucleation score does the source give for AGFVSVVVF here?
Answer: 0.005 ± 0.38

Question: Which amyloid nucleation score does the source give for AGKCGIQWACEM here?
Answer: 0.194 ± 0.69

Question: Which amyloid nucleation score does the source give for AGLITSDDMAYWIGILFCNL here?
Answer: 2.57 ± 0.14

Question: For AGQVYRFAVSVRSSKLIVAR, which amyloid nucleation score is on record?
Answer: 0.966 ± 0.45

Question: Which amyloid nucleation score does the source give for AGSGMLSKLVLLSRKSMVIT here?
Answer: 1.92 ± 0.21

Question: For AGVCYWTLDILPY, which amyloid nucleation score is on record?
Answer: 0.789 ± 0.9

Question: For AHCLECGMNVNGTIF, which amyloid nucleation score is on record?
Answer: -0.81 ± 1.6

Question: Which amyloid nucleation score does the source give for AHSAYL here?
Answer: 0.43 ± 0.4

Question: For AIRFDLVTFAAIEGIIYKGR, which amyloid nucleation score is on record?
Answer: 0.136 ± 1

Question: For AISAYELSRIRVQS, which amyloid nucleation score is on record?
Answer: 0.487 ± 0.55

Question: Which amyloid nucleation score does the source give for AKGCNMWI here?
Answer: 2.3 ± 0.32

Question: With AKGYTEMVKYHRVSTTMVFM as the substance, how does the amyloid nucleation score read?
Answer: inactive

Question: For AKHVLGNHAIRNGSKL, which amyloid nucleation score is on record?
Answer: 0.258 ± 0.3

Question: Which amyloid nucleation score does the source give for AKIWVWSWWY here?
Answer: 0.039 ± 0.47

Question: For AKLWQY, which amyloid nucleation score is on record?
Answer: -0.185 ± 1.1

Question: For AKPMNKTEYFSAYLQLHMGI, which amyloid nucleation score is on record?
Answer: 3.1 ± 0.12

Question: With ALCFGR as the substance, how does the amyloid nucleation score read?
Answer: inactive

Question: For ALHCQPVGH, which amyloid nucleation score is on record?
Answer: -0.006 ± 0.32

Question: Which amyloid nucleation score does the source give for ALIFLGYMLRRRYWIYRLLS here?
Answer: 0.07 ± 0.58

Question: With ALIYPILILYGV as the substance, how does the amyloid nucleation score read?
Answer: 1.52 ± 0.85

Question: Which amyloid nucleation score does the source give for ALMDKDLCLNMSGQKSLWFR here?
Answer: 0.073 ± 0.48

Question: For ALMDTCSVSSARGHDPCNRP, which amyloid nucleation score is on record?
Answer: -0.413 ± 0.78

Question: Which amyloid nucleation score does the source give for ALNGSNRIIACTIIWCVVW here?
Answer: 2.51 ± 0.18

Question: For ALRNCQNMRPYKTPVRPTVA, which amyloid nucleation score is on record?
Answer: 1.34 ± 0.71

Question: For ALSEFIFGLWLSFLIPRYMW, which amyloid nucleation score is on record?
Answer: 1.21 ± 0.56

Question: With ALTVTCFLVPGSYIIHVGMK as the substance, how does the amyloid nucleation score read?
Answer: -0.332 ± 0.37

Question: Which amyloid nucleation score does the source give for ALYSQGSSTV here?
Answer: -1.15 ± 1.1

Question: Which amyloid nucleation score does the source give for AMPADIILVVGLSCDDRREG here?
Answer: 0.724 ± 0.52

Question: For AMQYYIHQLVVDLSGLM, which amyloid nucleation score is on record?
Answer: 6.57 ± 0.077

Question: With AMYHLGQSSLLYSRPFNSTK as the substance, how does the amyloid nucleation score read?
Answer: -0.595 ± 1.6

Question: With ANADDMLRFRGDF as the substance, how does the amyloid nucleation score read?
Answer: 0.243 ± 0.44

Question: For ANAELVYNRLFRSTNPLGCV, which amyloid nucleation score is on record?
Answer: inactive

Question: Which amyloid nucleation score does the source give for ANLCSCSTTMA here?
Answer: 0.236 ± 0.39

Question: Which amyloid nucleation score does the source give for ANLDQCYIMEWGSTESSKL here?
Answer: 0.302 ± 1

Question: For ANLVWDYFQVSTSPMCPLVQ, which amyloid nucleation score is on record?
Answer: -2.07 ± 2.4

Question: For ANNNEYRFWTTSYW, which amyloid nucleation score is on record?
Answer: 0.041 ± 1.4

Question: With ANRNDCTQFTDSK as the substance, how does the amyloid nucleation score read?
Answer: -0.41 ± 0.27

Question: Which amyloid nucleation score does the source give for APDRNDHDKLCCLCDNWSAL here?
Answer: 0.056 ± 1.4

Question: For APEGLPMDAPGLGWVNRVII, which amyloid nucleation score is on record?
Answer: -0.295 ± 0.8

Question: Which amyloid nucleation score does the source give for APHTTTLTRKSFDNGCGGFG here?
Answer: 0.001 ± 0.38

Question: With APRYHAVFLLII as the substance, how does the amyloid nucleation score read?
Answer: -0.505 ± 0.79

Question: For APSYRATWRAVNCAILGPLY, which amyloid nucleation score is on record?
Answer: -0.567 ± 0.61

Question: With AQDLPLVTRNCKCMRRHLWV as the substance, how does the amyloid nucleation score read?
Answer: -0.171 ± 0.42

Question: For AQFFVLSSLW, which amyloid nucleation score is on record?
Answer: -0.085 ± 0.93

Question: For AQGVNSFCIEVFHCEGVMDP, which amyloid nucleation score is on record?
Answer: -0.003 ± 0.38

Question: For AQSPQVNSLWCGMNFTTFPG, which amyloid nucleation score is on record?
Answer: 1.92 ± 0.2

Question: Which amyloid nucleation score does the source give for AQTPRLLKVG here?
Answer: -1.01 ± 1.8

Question: Which amyloid nucleation score does the source give for ARGTGGSKAAPNYLVYTGCR here?
Answer: 0.684 ± 0.48

Question: Which amyloid nucleation score does the source give for ARGYAGVRRLVGYR here?
Answer: 0.133 ± 0.56

Question: With ARGYPLTYKYQVSRGSRLTL as the substance, how does the amyloid nucleation score read?
Answer: 0.439 ± 0.4

Question: For ARMASHRTCLNVYLRLCAYL, which amyloid nucleation score is on record?
Answer: -0.343 ± 0.31

Question: With ARSCVLNLVPGFSPSFGT as the substance, how does the amyloid nucleation score read?
Answer: -0.426 ± 0.52

Question: For ARWKKQWFYT, which amyloid nucleation score is on record?
Answer: 0.796 ± 0.58

Question: For ASAWGLGYEFPWSRSYSAKT, which amyloid nucleation score is on record?
Answer: -0.209 ± 0.9

Question: With ASFVSLVSAPESFNGFAVQN as the substance, how does the amyloid nucleation score read?
Answer: -0.006 ± 0.48

Question: Which amyloid nucleation score does the source give for ASIYMLRFMDLT here?
Answer: -0.244 ± 0.71

Question: Which amyloid nucleation score does the source give for ASLAIGFSIKSHYVMCRVYP here?
Answer: 0.42 ± 0.35

Question: With ASMPAFAT as the substance, how does the amyloid nucleation score read?
Answer: 0.413 ± 0.72

Question: For ASMWSWRYHMEAINSTKAEA, which amyloid nucleation score is on record?
Answer: -0.745 ± 2.4
